Source: patent publication US20030131383A1 (INTERLINK BIOTECHNOLOGIES, published 2003)
No end group written: not given here.

Tests used:
Assay in all cases: cell-based or functional assay
[1] = target: Chymotrypsin
[2] = target: T1, Papain (UniProt P00784 134-345)
T1 sequence (looked up): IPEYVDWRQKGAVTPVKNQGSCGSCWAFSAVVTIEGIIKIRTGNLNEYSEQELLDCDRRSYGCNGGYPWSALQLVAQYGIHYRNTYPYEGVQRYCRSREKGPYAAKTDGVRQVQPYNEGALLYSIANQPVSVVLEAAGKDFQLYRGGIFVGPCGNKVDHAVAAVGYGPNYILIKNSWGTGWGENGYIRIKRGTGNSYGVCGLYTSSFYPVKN

[3] = target: Carboxypeptidase

% Inhibition of Proteolysis by Rev4 at 2.5 µg/ml [1]: 16%
% Inhibition of Proteolysis by Rev4 at 5 µg/ml [1]: 42%
% Inhibition of Proteolysis by Rev4 at 10 µg/ml [1]: 75%
% Inhibition of Proteolysis by Rev4 at 20 µg/ml [1]: 97%
% Inhibition of Proteolysis by Rev4 at 2.5 µg/ml [2]: 29%
% Inhibition of Proteolysis by Rev4 at 5 µg/ml [2]: 72%
% Inhibition of Proteolysis by Rev4 at 10 µg/ml [2]: 93%
% Inhibition of Proteolysis by Rev4 at 20 µg/ml [2]: 99%
% Inhibition of Proteolysis by Rev4 at 2.5 µg/ml [3]: 58%
% Inhibition of Proteolysis by Rev4 at 5 µg/ml [3]: 92%
% Inhibition of Proteolysis by Rev4 at 10 µg/ml [3]: 100%
% Inhibition of Proteolysis by Rev4 at 20 µg/ml [3]: 100%
Binder: RRWPWWPWKWPLI-NH2 [Rev4 (reverse indolicidin), C-terminal amide form]
